Experiments:
SHP2 = SHP2 (UniProt Q06124); experiment: GFP-Trap co-IP, SHP2 blot; conditions: reference: BTLA wild type
SHP1 = SHP1 (UniProt P29350); experiment: GFP-Trap co-IP, SHP1 blot; conditions: reference: BTLA wild type

| Substance | binding against the reference (SHP2; sites Y257) | binding against the reference (SHP1; sites Y257) | binding against the reference (SHP2; sites Y282) | binding against the reference (SHP1; sites Y282) |
| --- | --- | --- | --- | --- |
| BTLA (from UniProt Q7Z6A9) BTLAYYFY (Y257F) | lost | lost |  |  |
| BTLA (from UniProt Q7Z6A9) BTLAYYYF (Y282F) |  |  | lost | lost |

From paper PMC8631942
